Measured values reported in the Immune Epitope Database (IEDB).
Each block holds one sequence with its values, some of them ahead of it.

What was measured:
HLA-B*15:01 [1] = experiment: IEDB peptide-MHC binding, purified MHC/competitive/radioactivity; filed as Kd, often an IC50 or EC50 that approximates it; ≥ and ≤ were set here for values at or beyond the usual limits of such assays
HLA-A*24:02 [2] = experiment: as above; conditions: source organism: Dengue virus 4 Philippines/H241/1956
HLA-B*08:01 = experiment: as above
HLA-A*31:01 [3] = experiment: IEDB peptide-MHC binding, purified MHC/competitive/fluorescence; filed as Kd, often an IC50 or EC50 that approximates it; ≥ and ≤ were set here for values at or beyond the usual limits of such assays
HLA-A*03:01 [4] = experiment: as above
HLA-B*58:01 [5] = experiment: IEDB peptide-MHC binding, purified MHC/competitive/radioactivity; filed as Kd, often an IC50 or EC50 that approximates it; ≥ and ≤ were set here for values at or beyond the usual limits of such assays
HLA-B*15:03 = experiment: as above
HLA-B*15:01 [6] = experiment: IEDB peptide-MHC binding, purified MHC/competitive/fluorescence; filed as Kd, often an IC50 or EC50 that approximates it; ≥ and ≤ were set here for values at or beyond the usual limits of such assays; conditions: source organism: Bacillus anthracis str. A0488
HLA-A*02:01 [7] = experiment: IEDB peptide-MHC binding, purified MHC/competitive/fluorescence; ≥ and ≤ were set here for values at or beyond the usual limits of such assays; conditions: source organism: Vaccinia virus WR
HLA-A*24:02 [8] = experiment: as above; conditions: source organism: Vaccinia virus WR
HLA-A*11:01 [9] = experiment: as above
HLA-B*51:01 = experiment: IEDB peptide-MHC binding, purified MHC/competitive/fluorescence; filed as Kd, often an IC50 or EC50 that approximates it; ≥ and ≤ were set here for values at or beyond the usual limits of such assays; conditions: source organism: Yersinia pestis Nepal516
HLA-A*32:01 = experiment: IEDB peptide-MHC binding, purified MHC/competitive/radioactivity; filed as Kd, often an IC50 or EC50 that approximates it; ≥ and ≤ were set here for values at or beyond the usual limits of such assays
HLA-A*03:01 [10] = experiment: IEDB peptide-MHC binding, purified MHC/direct/fluorescence; filed as Kd, often an IC50 or EC50 that approximates it; ≥ and ≤ were set here for values at or beyond the usual limits of such assays
HLA-A*30:02 = experiment: IEDB peptide-MHC binding, purified MHC/competitive/radioactivity; filed as Kd, often an IC50 or EC50 that approximates it; ≥ and ≤ were set here for values at or beyond the usual limits of such assays; conditions: source organism: Dengue virus 1 Brazil/97-11/1997
HLA-B*53:01 = experiment: as above; conditions: source organism: Dengue virus 1 Brazil/97-11/1997
HLA-A*31:01 [11] = experiment: IEDB peptide-MHC binding, purified MHC/direct/fluorescence; filed as Kd, often an IC50 or EC50 that approximates it; ≥ and ≤ were set here for values at or beyond the usual limits of such assays; conditions: source organism: Yellow fever virus
HLA-B*27:05 = experiment: as above; conditions: source organism: Yellow fever virus
HLA-B*48:01 = experiment: as above; conditions: source organism: Yellow fever virus
HLA-A*29:02 = experiment: as above; conditions: source organism: Yellow fever virus
HLA-B*40:01 = experiment: as above; conditions: source organism: Yellow fever virus
HLA-B*07:02 = experiment: as above; conditions: source organism: Yellow fever virus
HLA-B*15:01 [12] = experiment: as above; conditions: source organism: Yellow fever virus
HLA-A*69:01 = experiment: as above; conditions: source organism: Yellow fever virus
HLA-A*02:01 [13] = experiment: as above; conditions: source organism: Yellow fever virus
HLA-B*44:02 = experiment: as above; conditions: source organism: Yellow fever virus
HLA-A*01:01 = experiment: as above; conditions: source organism: Yellow fever virus
HLA-B*57:01 = experiment: as above; conditions: source organism: Yellow fever virus
HLA-B*46:01 = experiment: as above; conditions: source organism: Yellow fever virus
HLA-B*58:01 [14] = experiment: as above; conditions: source organism: Yellow fever virus
HLA-B*18:01 = experiment: as above; conditions: source organism: Yellow fever virus
HLA-A*11:01 [15] = experiment: as above; conditions: source organism: Amur virus
HLA-A*26:01 = experiment: IEDB peptide-MHC binding, purified MHC/competitive/fluorescence; filed as Kd, often an IC50 or EC50 that approximates it; ≥ and ≤ were set here for values at or beyond the usual limits of such assays; conditions: source organism: Mammarenavirus lassaense
[16] = source organism: Dengue virus 4 Philippines/H241/1956
[17] = source organism: Escherichia coli 101-1
[18] = source organism: Vaccinia virus WR
[19] = source organism: Vaccinia virus Copenhagen
[20] = source organism: Dengue virus 1 Brazil/97-11/1997
[21] = source organism: Escherichia coli 536
[22] = source organism: Dengue virus 2 Peru/IQT2913/1996

Sequence: VMKRYSAPF
Kd (HLA-B*15:01 [1]; [16]): 10.2 nM
Kd (HLA-A*24:02 [2]): 994 nM
Kd (HLA-B*08:01; [16]): 8.98 nM

Kd (HLA-A*31:01 [3]; [17]): 19.1 nM
Kd (HLA-A*03:01 [4]; [17]): 112 nM
Sequence: HTFTAPIAK

Sequence: ASAIVLEFF
Kd (HLA-B*58:01 [5]; source organism: Dengue virus 3 Martinique/1243/1999): 28.2 nM

Sequence: FMASPENVI
Kd (HLA-B*15:03; [18]): 6.38 nM

Sequence: VLQSAANMY
Kd (HLA-B*15:01 [6]): 67.5 nM

Sequence: FYTRVLKPS
IC50 (HLA-A*02:01 [7]): ≥ 110000 nM
IC50 (HLA-A*24:02 [8]): 7110 nM
IC50 (HLA-A*11:01 [9]; [18]): ≥ 179000 nM

Sequence: LPFVWAPMV
Kd (HLA-B*51:01): 39.9 nM

Sequence: ISTKLSCHY
Kd (HLA-B*15:01 [1]; [18]): 17.5 nM

Sequence: IISSSTLYF
Kd (HLA-B*15:01 [1]; [19]): 1.06 nM

Sequence: RLYSIFLIF
Kd (HLA-A*32:01; [19]): 6.87 nM
Kd (HLA-B*15:01 [1]; [19]): 3.35 nM
Kd (HLA-B*15:03; [19]): 0.158 nM
Kd (HLA-B*08:01; [19]): 15700 nM

Sequence: GLYCYFTHL
Kd (HLA-B*15:01 [1]; [18]): 6.87 nM

Sequence: YLHYYRIIR
Kd (HLA-A*03:01 [10]; source organism: Mycobacterium tuberculosis): ≥ 20000 nM
Kd (HLA-A*31:01 [3]; source organism: Mycobacterium tuberculosis H37Rv): 245 nM

Sequence: TMAHRKPTY
Kd (HLA-A*30:02): 2060 nM
Kd (HLA-B*15:01 [1]; [20]): 144 nM

Kd (HLA-A*31:01 [3]; [21]): 107 nM
Kd (HLA-A*03:01 [4]; [21]): ≥ 20000 nM
Sequence: VTVVAVPLR

Sequence: FVTNEVHTW
Kd (HLA-B*53:01): 61.2 nM
Kd (HLA-B*58:01 [5]; [20]): 29.9 nM

Sequence: VNRWLFRHL
Kd (HLA-A*31:01 [11]): ≥ 20000 nM
Kd (HLA-B*27:05): ≥ 20000 nM
Kd (HLA-B*48:01): ≥ 20000 nM
Kd (HLA-A*29:02): ≥ 20000 nM
Kd (HLA-A*03:01 [10]; source organism: Yellow fever virus): ≥ 20000 nM
Kd (HLA-B*40:01): ≥ 20000 nM
Kd (HLA-B*07:02): ≥ 20000 nM
Kd (HLA-B*15:01 [12]): ≥ 20000 nM
Kd (HLA-A*69:01): ≥ 20000 nM
Kd (HLA-A*02:01 [13]): ≥ 20000 nM
Kd (HLA-B*44:02): ≥ 20000 nM
Kd (HLA-A*01:01): ≥ 20000 nM
Kd (HLA-B*57:01): ≥ 20000 nM
Kd (HLA-B*46:01): ≥ 20000 nM
Kd (HLA-B*58:01 [14]): ≥ 20000 nM
Kd (HLA-B*18:01): ≥ 20000 nM

Sequence: RQMEGEGVF
Kd (HLA-A*32:01; [22]): 429 nM
Kd (HLA-B*15:01 [1]; [22]): 4.86 nM

Sequence: AVVRFRTHF
Kd (HLA-B*15:03; [18]): 191 nM

Sequence: VIGFLALAK
Kd (HLA-A*03:01 [10]; source organism: Amur virus): 232 nM
Kd (HLA-A*11:01 [15]): 12.6 nM
Kd (HLA-A*31:01 [3]; source organism: Orthohantavirus dobravaense): ≥ 20000 nM

Sequence: SAGESSILR
IC50 (HLA-A*11:01 [9]; [19]): 1410 nM

Sequence: DVADLFPAQ
Kd (HLA-A*26:01): 1780 nM

Sequence: RKYGCGNMF
Kd (HLA-B*15:03; [18]): 1.25 nM

Sequence: LMVSGPNVV
Kd (HLA-B*15:03; [18]): 3.8 nM

Sequence: LLCKLSCAV
Kd (HLA-B*15:01 [1]; [18]): 416 nM

Sequence: GVFYRPLHF
Kd (HLA-B*15:01 [1]; [18]): 5.54 nM

Sequence: FKVLDGSPI
Kd (HLA-B*15:03; [18]): 0.822 nM
